Where a chain is given by its changes, count along the chain named.
B1: IgG1-F1284 (antibody)
heavy: QVQLQESGPGLVKPSETLSLTCAVSGHSISHDHAWSWVRQPPGEGLEWIGFISYSGITNYNPSLQGRVTISRDNSKNTLYLQMNSLRAEDTAVYYCARSLARTTAMDYWGEGTLVTVSSASTKGPSVFPLAPSSKSTSGGTAALGCLVKDYFPEPVTVSWNSGALTSGVHTFPAVLQSSGLYSLSSVVTVPSSSLGTQTYICNVNHKPSNTKVDKKVEPKSCDKTHTCPPCPAPELRGGPKVFLFPPKPKDTLYISRNPEVTCVVVDVSHEDPEVKFNWYVDGVEVHNAKTKPREEQYNSTYRVVSVLTVLHQDWLNGKEYKCKVSNKALPAPIEKTISKAKGQPREPQVYTLPPSRDELTKNQVSLTCLVKGFYPSDIAVEWESNGQPENNYKTTPPVLDSDGSFFLYSKLTVDKSRWQQGNVFSCSVMHEALDYHVTKKDLSLSP
light: not shown
notes: EU numbering; copies: 2 + 2
B2: IgG1-F1306 (antibody)
heavy: B1 heavy with N258T, D442E
light: not shown
notes: EU numbering; copies: 2 + 2
B3: IgG1-F1334 (antibody)
heavy: B1 heavy with G238R, N258T, D435H
light: not shown
notes: EU numbering; copies: 2 + 2
B4: IgG1-F1310 (antibody)
heavy: B1 heavy with N258T, D435H, K440L, D442L
light: not shown
notes: EU numbering; copies: 2 + 2
B5: IgG1-F1293 (antibody)
heavy: B1 heavy with N258E, D435H, V438Y, K440R, D442E
light: not shown
notes: EU numbering; copies: 2 + 2
B6: IgG1-F1314 (antibody)
heavy: B1 heavy with N258T, K440L, D442L
light: not shown
notes: EU numbering; copies: 2 + 2
B7: IgG1-F1312 (antibody)
heavy: B1 heavy with N258T, V424L, S426L, K440Q, D442S
light: not shown
notes: EU numbering; copies: 2 + 2
B8: IgG1-F1298 (antibody)
heavy: B1 heavy with N258E, V438F, K440R, D442E
light: not shown
notes: EU numbering; copies: 2 + 2
B9: IgG1-F1308 (antibody)
heavy: B1 heavy with N258T, V424L, S426L, D435H, K440Q, D442S
light: not shown
notes: EU numbering; copies: 2 + 2
B10: IgG1-F1317 (antibody)
heavy: B1 heavy with R237L, N258T, P331K, D435H, K440Q, D442S
light: not shown
notes: EU numbering; copies: 2 + 2
B11: IgG1-F1304 (antibody)
heavy: B1 heavy with N258E, V438F
light: not shown
notes: EU numbering; copies: 2 + 2
B12: IgG1-F1288 (antibody)
heavy: B1 heavy with N258E, D435H
light: not shown
notes: EU numbering; copies: 2 + 2
B13: IgG1-F1328 (antibody)
heavy: B1 heavy with G238R, N258T, D435H, K440R, D442E
light: not shown
notes: EU numbering; copies: 2 + 2
B14: IgG1-F1307 (antibody)
heavy: B1 heavy with N258T, V424A, S426A, D435H, K440Q, D442S
light: not shown
notes: EU numbering; copies: 2 + 2
B15: IgG1-F1319 (antibody)
heavy: B1 heavy with R237L, K241S, N258T, L330Y, D435H, V438Y, K440Q, D442S
light: not shown
notes: EU numbering; copies: 2 + 2
B16: IgG1-F1324 (antibody)
heavy: B1 heavy with L236A, R237A, K241S, N258T, D435H, K440Q, D442S
light: not shown
notes: EU numbering; copies: 2 + 2
B17: IgG1-F1329 (antibody)
heavy: B1 heavy with G238R, S256T, N258T, D435H, K440R, D442E
light: not shown
notes: EU numbering; copies: 2 + 2
B18: IgG1-F1292 (antibody)
heavy: B1 heavy with Y254M, N258T, Y436W, K440R, D442E
light: not shown
notes: EU numbering; copies: 2 + 2
B19: IgG1-F1286 (antibody)
heavy: B1 heavy with S256T, N258T, K440R, D442E
light: not shown
notes: EU numbering; copies: 2 + 2
B20: IgG1-F1311 (antibody)
heavy: B1 heavy with N258T, V424A, S426A, K440Q, D442S
light: not shown
notes: EU numbering; copies: 2 + 2
B21: IgG1-F1291 (antibody)
heavy: B1 heavy with N258T, K440Q, D442S
light: not shown
notes: EU numbering; copies: 2 + 2
B22: IgG1-F1321 (antibody)
heavy: B1 heavy with S256T, N258T, D435H, D442E
light: not shown
notes: EU numbering; copies: 2 + 2
B23: IgG1-F1316 (antibody)
heavy: B1 heavy with R237L, G239R, N258T, D435H, K440Q, D442S
light: not shown
notes: EU numbering; copies: 2 + 2
B24: IgG1-F1333 (antibody)
heavy: B1 heavy with G238R, N258T, D435H, K440Q, D442S
light: not shown
notes: EU numbering; copies: 2 + 2
B25: IgG1-F1325 (antibody)
heavy: B1 heavy with L236A, R237A, K241S, N258T, N299A, D435H, K440Q, D442S
light: not shown
notes: EU numbering; copies: 2 + 2
B26: IgG1-F1295 (antibody)
heavy: B1 heavy with N258E, D435H, V438F, K440R, D442E
light: not shown
notes: EU numbering; copies: 2 + 2
B27: IgG1-F1300 (antibody)
heavy: B1 heavy with N258E, D435H, V438T
light: not shown
notes: EU numbering; copies: 2 + 2
B28: IgG1-F1290 (antibody)
heavy: B1 heavy with N258E
light: not shown
notes: EU numbering; copies: 2 + 2
B29: IgG1-F1313 (antibody)
heavy: B1 heavy with N258T, K440A, D442A
light: not shown
notes: EU numbering; copies: 2 + 2
B30: IgG1-F1302 (antibody)
heavy: B1 heavy with N258E, V438Y
light: not shown
notes: EU numbering; copies: 2 + 2
B31: IgG1-F1289 (antibody)
heavy: B1 heavy with N258E, K440R, D442E
light: not shown
notes: EU numbering; copies: 2 + 2
B32: IgG1-F1305 (antibody)
heavy: B1 heavy with N258T, K440R
light: not shown
notes: EU numbering; copies: 2 + 2
B33: IgG1-F1330 (antibody)
heavy: B1 heavy with G238R, N258E, D435H, K440R, D442E
light: not shown
notes: EU numbering; copies: 2 + 2
B34: IgG1-F1320 (antibody)
heavy: B1 heavy with S256T, N258T, D435H, K440R
light: not shown
notes: EU numbering; copies: 2 + 2
B35: IgG1-F1335 (antibody)
heavy: B1 heavy with G238R, S256T, N258T, D435H
light: not shown
notes: EU numbering; copies: 2 + 2
B36: IgG1-F1285 (antibody)
heavy: B1 heavy with S256T, N258T, D435H
light: not shown
notes: EU numbering; copies: 2 + 2
B37: IgG1-F1309 (antibody)
heavy: B1 heavy with N258T, D435H, K440A, D442A
light: not shown
notes: EU numbering; copies: 2 + 2
B38: IgG1-F1323 (antibody)
heavy: B1 heavy with S256T, N258T, D442E
light: not shown
notes: EU numbering; copies: 2 + 2
B39: IgG1-F1331 (antibody)
heavy: B1 heavy with G238R, S256T, N258E, D435H, K440R, D442E
light: not shown
notes: EU numbering; copies: 2 + 2
B40: IgG1-F1315 (antibody)
heavy: B1 heavy with R237L, G239K, N258T, D435H, K440Q, D442S
light: not shown
notes: EU numbering; copies: 2 + 2
B41: IgG1-F1318 (antibody)
heavy: B1 heavy with R237L, N258T, P331R, D435H, K440Q, D442S
light: not shown
notes: EU numbering; copies: 2 + 2
B42: IgG1-F1296 (antibody)
heavy: B1 heavy with N258E, V438Y, K440R, D442E
light: not shown
notes: EU numbering; copies: 2 + 2

Molecular target: T1, soluble human FcRn (human, UniProt P55899 24-297; P61769 21-119)
T1 construct: Heterodimer of FcRn alpha chain and beta2-microglobulin; also called hFcRn
T1 sequence (P55899 24-297 limits assumed, chain 1 of 2): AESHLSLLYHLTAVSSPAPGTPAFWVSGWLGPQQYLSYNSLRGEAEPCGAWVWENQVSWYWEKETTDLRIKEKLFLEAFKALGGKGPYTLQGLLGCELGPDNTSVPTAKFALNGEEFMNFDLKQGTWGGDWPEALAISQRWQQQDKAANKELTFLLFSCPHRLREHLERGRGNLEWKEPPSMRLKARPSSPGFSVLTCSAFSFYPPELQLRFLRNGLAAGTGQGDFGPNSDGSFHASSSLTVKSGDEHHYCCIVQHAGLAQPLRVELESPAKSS
T1 sequence (P61769 21-119 limits assumed, chain 2 of 2): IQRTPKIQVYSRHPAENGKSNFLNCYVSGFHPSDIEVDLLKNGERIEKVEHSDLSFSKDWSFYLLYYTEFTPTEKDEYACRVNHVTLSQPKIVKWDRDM
Test: SPR (Biacore T100), antibody captured by protein L, hFcRn as analyte, pH 7.0, 25 C;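 note: KD calculated from fitted association and dissociation rate constants of the sensorgrams, protein L amine-coupled to the sensor chip, sodium phosphate running buffer with NaCl and Tween20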
Description: An appropriate amount of protein L (ACTIGEN) was immobilized onto Sensor chip CM4 (GE Healthcare) by the amino coupling method, and the chip was allowed to capture an antibody of interest. Then, diluted FcRn solutions and running buffer (as a reference solution) were injected to allow human FcRn to interact with the antibody captured on the sensor chip. The running buffer used comprised 50 mmol/l sodium phosphate, 150 mmol/l NaCl, and 0.05% (w/v) Tween20 (pH 7.0). FcRn was diluted using each buffer. The chip was regenerated using 10 mmol/l glycine-HCl (pH 1.5). Assays were carried out exclusively at 25 degrees C. The association rate constant ka (1/Ms) and dissociation rate constant kd (1/s), both of which are kinetic parameters, were calculated based on the sensorgrams obtained in the assays, and KD (M) of each antibody for human FcRn was determined from these values. Each parameter was calculated using Biacore T100 Evaluation Software (GE Healthcare).

Binder	Kd
B1	110 nM
B2	190 nM
B3	100 nM
B4	230 nM
B5	160 nM
B6	230 nM
B7	180 nM
B8	150 nM
B9	210 nM
B10	140 nM
B11	120 nM
B12	79 nM
B13	150 nM
B14	140 nM
B15	270 nM
B16	130 nM
B17	130 nM
B18	420 nM
B19	160 nM
B20	170 nM
B21	150 nM

Binder	Kd
B22	100 nM
B23	150 nM
B24	120 nM
B25	210 nM
B26	98 nM
B27	160 nM
B28	110 nM
B29	180 nM
B30	220 nM
B31	130 nM
B32	200 nM
B33	100 nM
B34	120 nM
B35	88 nM
B36	94 nM
B37	130 nM
B38	150 nM
B39	77 nM
B40	150 nM
B41	140 nM
B42	230 nM

— US20140363428A1 (Chugai, published 2014)
